For assay [1], the target named is HLA-B*07:02. Kind of assay: IEDB peptide-MHC binding, purified MHC/competitive/fluorescence; ≥ and ≤ were set here for values at or beyond the usual limits of such assays. Particulars: source organism: Zaire ebolavirus.
Assay [2] addresses HLA-A*02:01. The assay can be described thus: IEDB peptide-MHC binding, purified MHC/direct/fluorescence; filed as Kd, often an IC50 or EC50 that approximates it; ≥ and ≤ were set here for values at or beyond the usual limits of such assays. Particulars: source organism: Francisella tularensis subsp. holarctica LVS.
In the next assay the target is HLA-A*02:19. The assay is described as above. Particulars: source organism: Francisella tularensis subsp. tularensis FSC033.
The target in another assay is HLA-A*02:12. The assay is described as above. Particulars: source organism: Francisella tularensis subsp. tularensis FSC033.
The next assay has as its target HLA-C*08:02. Described as above.
Another assay has as its target HLA-A*02:11. The description is as above. As to conditions: source organism: Francisella tularensis subsp. tularensis FSC033.
The next assay deals with HLA-C*12:03. Described as above. Particulars: source organism: Francisella tularensis subsp. tularensis WY96-3418.
A further assay concerns the target HLA-C*05:01. The description is as above.
The target in another assay is HLA-C*03:03. The assay is described as above. As to conditions: source organism: Mycobacterium tuberculosis C.
For assay [3], the target named is HLA-A*02:01. Kind of assay: IEDB peptide-MHC binding, purified MHC/competitive/fluorescence; ≥ and ≤ were set here for values at or beyond the usual limits of such assays. As to conditions: source organism: Zaire ebolavirus.
Assay [4] deals with HLA-A*11:01. Described as above. As to conditions: source organism: Zaire ebolavirus.
In another assay the target is HLA-A*24:02. The description is as above. As to conditions: source organism: Zaire ebolavirus.
The target in assay [5] is HLA-B*15:01. Described as above. Particulars: source organism: Zaire ebolavirus.
The target in another assay is HLA-A*68:02. Kind of assay: IEDB peptide-MHC binding, purified MHC/direct/fluorescence; filed as Kd, often an IC50 or EC50 that approximates it; ≥ and ≤ were set here for values at or beyond the usual limits of such assays. As to conditions: source organism: Francisella tularensis subsp. holarctica LVS.
In assay [6] the target is HLA-A*11:01. The assay is described as above. Particulars: source organism: Francisella tularensis subsp. holarctica LVS.
Another assay addresses HLA-B*27:05. Described as above. Particulars: source organism: Francisella tularensis subsp. holarctica LVS.
Assay [7] addresses HLA-B*07:02. The description is as above. As to conditions: source organism: Francisella tularensis subsp. holarctica LVS.
The next assay addresses HLA-B*15:09. Described as above. Particulars: source organism: Francisella tularensis subsp. tularensis FSC033.
For assay [8], the target named is HLA-B*15:01. The assay is described as above. Particulars: source organism: Francisella tularensis subsp. holarctica LVS.
The next assay concerns the target HLA-B*46:01. Described as above. Particulars: source organism: Francisella tularensis subsp. holarctica LVS.
For another assay, the target named is HLA-B*48:01. The description is as above. As to conditions: source organism: Francisella tularensis subsp. holarctica LVS.
The next assay deals with HLA-A*31:01. Described as above. Particulars: source organism: Francisella tularensis subsp. holarctica LVS.
The next assay has as its target HLA-A*69:01. The assay is described as above. As to conditions: source organism: Francisella tularensis subsp. holarctica LVS.
A further assay deals with HLA-A*01:01. Described as above. As to conditions: source organism: Francisella tularensis subsp. holarctica LVS.
A further assay concerns the target HLA-B*15:02. The description is as above. As to conditions: source organism: Francisella tularensis subsp. tularensis FSC033.
For a further assay, the target named is HLA-B*57:01. The assay is described as above. Particulars: source organism: Francisella tularensis subsp. holarctica LVS.
The target in assay [9] is HLA-B*58:01. The description is as above. Particulars: source organism: Francisella tularensis subsp. holarctica LVS.
A further assay addresses HLA-B*08:01. The description is as above. Particulars: source organism: Francisella tularensis subsp. tularensis FSC033.
For the next assay, the target named is HLA-A*26:02. Kind of assay: IEDB peptide-MHC binding, purified MHC/competitive/fluorescence; filed as Kd, often an IC50 or EC50 that approximates it; ≥ and ≤ were set here for values at or beyond the usual limits of such assays. Particulars: source organism: Francisella tularensis subsp. tularensis FSC198.
A further assay concerns the target HLA-B*15:17. The description is as above. Particulars: source organism: Francisella tularensis subsp. tularensis FSC198.
The next assay has as its target HLA-A*30:01. The assay is described as above. As to conditions: source organism: Francisella tularensis subsp. tularensis FSC198.
The target of a further assay is HLA-A*02:03. Described as above. Particulars: source organism: Francisella tularensis subsp. tularensis FSC198.
Another assay concerns the target HLA-B*35:01. The description is as above. As to conditions: source organism: Francisella tularensis subsp. tularensis FSC198.
Assay [10] concerns the target HLA-A*02:01. The assay is described as above. Particulars: source organism: Yersinia pestis Nepal516.
A further assay addresses HLA-B*39:01. The description is as above. As to conditions: source organism: Yersinia pestis Nepal516.
In assay [11] the target is HLA-B*15:01. The description is as above. As to conditions: source organism: Yersinia pestis Nepal516.
The target of a further assay is HLA-B*51:01. Described as above. As to conditions: source organism: Yersinia pestis Nepal516.
The target of assay [12] is HLA-B*58:01. The description is as above. As to conditions: source organism: Yersinia pestis Nepal516.
Where [13] appears, read: source organism: Mycobacterium tuberculosis C.
Where [14] appears, read: source organism: Yersinia pestis Nepal516.

In general, IC50 refers to the concentration that inhibits the measured activity by half. SPQNHSETA: the concentration for half-maximal inhibition (IC50) with HLA-B*07:02 [1] is 45.2 µM.
As usually defined, the Kd is the equilibrium constant for the complex coming apart. A low value points to tighter binding. YLYPWSLGL: the dissociation constant (Kd) in the assay with HLA-A*02:01 [2] is at most 0.001 µM; with HLA-A*02:19, 12 nM; with HLA-A*02:12 it was 2 nM; with HLA-C*08:02 (source organism: Francisella tularensis subsp. tularensis WY96-3418), at least 20000 nM; in the assay with HLA-A*02:11, at most 1 nM; with HLA-C*12:03 it was 4 nM.
YLDAIQQPV: the Kd was 25 nM with HLA-C*05:01 (setting [13]), 256 nM with HLA-C*03:03 and at most 1 nM with HLA-C*08:02 (setting [13]).
For the sequence RTNFLIKFL, the half-maximal inhibitory concentration (IC50) with HLA-A*02:01 [3] was at least 165 µM; with HLA-A*11:01 [4] it was at least 589 µM; with HLA-B*07:02 [1] it was at least 275 µM; in the assay with HLA-A*24:02, 10.2 µM; with HLA-B*15:01 [5], at least 725 µM.
As for FQVNRFTGY, the Kd with HLA-A*02:01 [2] is at least 20 µM; with HLA-A*68:02, at least 20 µM; with HLA-A*11:01 [6], at least 20 µM; in the assay with HLA-B*27:05 it was 632 nM; with HLA-B*07:02 [7], at least 20 µM; with HLA-B*15:09 it was at least 20 µM. In addition, the Kd is 9.7 nM in the assay with HLA-B*15:01 [8]; at least 20 µM in the assay with HLA-B*46:01; at least 20 µM with HLA-B*48:01; at least 20 µM in the assay with HLA-A*31:01; at least 20 µM with HLA-A*69:01; at least 20 µM with HLA-A*01:01. Besides, the equilibrium dissociation constant (Kd) with HLA-B*15:02 is 8 nM; in the assay with HLA-B*57:01, at least 20 µM; in the assay with HLA-B*58:01 [9], at least 20 µM; with HLA-B*08:01 it was at least 20 µM; in the assay with HLA-A*26:02, 113 nM; with HLA-B*15:17, at least 20 µM. The equilibrium dissociation constant (Kd) with HLA-A*30:01 is at least 20 µM; with HLA-A*02:03, at least 20 µM; in the assay with HLA-B*35:01 it was 4.41 µM.
Consider FSYNVAYAI, for which the Kd with HLA-C*05:01 (setting [14]) was 4960 nM; with HLA-C*08:02 (setting [14]), 182 nM; with HLA-A*02:01 [10] it was 29.6 nM; with HLA-B*39:01, 469 nM; with HLA-B*15:01 [11] it was at least 20 µM; with HLA-B*51:01, 2270 nM. The Kd in the assay with HLA-B*58:01 [12] stood at 36.3 nM.

The values are drawn from the Immune Epitope Database (IEDB).
